Measured values from publication doi:10.1101/2021.06.17.448816 (bioRxiv, 2021).

T1: Pol α catalytic subunit (334-1462), as in the truncated human primosome (human, UniProt P09884 334-1462)
T1 construct: also called DNA polymerase α; catalytic subunit of Pol α
T1 sequence (looked up): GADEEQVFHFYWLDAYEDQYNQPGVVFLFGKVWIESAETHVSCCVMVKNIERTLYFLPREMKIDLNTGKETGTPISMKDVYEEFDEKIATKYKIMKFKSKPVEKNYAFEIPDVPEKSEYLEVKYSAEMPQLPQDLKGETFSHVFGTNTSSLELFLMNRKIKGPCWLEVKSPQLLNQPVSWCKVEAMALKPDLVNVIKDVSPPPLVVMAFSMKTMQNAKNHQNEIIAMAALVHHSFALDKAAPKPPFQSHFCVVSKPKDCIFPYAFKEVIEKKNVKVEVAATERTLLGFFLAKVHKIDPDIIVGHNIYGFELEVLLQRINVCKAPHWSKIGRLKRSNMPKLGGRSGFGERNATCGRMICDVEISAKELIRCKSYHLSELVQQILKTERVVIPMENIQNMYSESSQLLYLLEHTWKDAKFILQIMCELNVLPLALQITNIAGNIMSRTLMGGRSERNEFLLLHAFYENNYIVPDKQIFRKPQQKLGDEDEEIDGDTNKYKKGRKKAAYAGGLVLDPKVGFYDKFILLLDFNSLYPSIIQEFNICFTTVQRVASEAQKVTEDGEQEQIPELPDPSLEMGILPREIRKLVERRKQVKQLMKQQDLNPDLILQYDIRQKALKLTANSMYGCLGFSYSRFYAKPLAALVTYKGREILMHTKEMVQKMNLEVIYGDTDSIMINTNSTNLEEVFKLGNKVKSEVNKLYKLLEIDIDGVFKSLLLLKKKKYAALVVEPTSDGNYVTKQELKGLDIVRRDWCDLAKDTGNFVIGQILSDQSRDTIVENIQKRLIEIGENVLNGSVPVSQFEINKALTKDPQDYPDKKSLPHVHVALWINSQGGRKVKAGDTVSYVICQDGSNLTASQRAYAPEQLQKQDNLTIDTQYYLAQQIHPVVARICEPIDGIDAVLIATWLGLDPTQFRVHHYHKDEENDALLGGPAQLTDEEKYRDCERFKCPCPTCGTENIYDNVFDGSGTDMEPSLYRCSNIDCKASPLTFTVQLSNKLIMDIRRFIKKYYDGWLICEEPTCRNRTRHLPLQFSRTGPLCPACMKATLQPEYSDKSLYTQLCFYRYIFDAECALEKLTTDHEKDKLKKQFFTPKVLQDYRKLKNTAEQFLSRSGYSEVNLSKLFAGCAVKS

B1: SARS-CoV nsp1 (13-127), His6-MBP tag cleaved (domain or fragment)
chain: HVQLSLPVLQVRDVLVRGFGDSVEEALSEAREHLKNGTCGLVELEKGVLPQLEQPYVFIKRSDALSTNHGHKVVELVAEMDGIQYGRSGITLGVLVPHVGETPIAYRNVLLRKNG
B2: MBP-tagged SARS-CoV nsp1 (full-length, His6-MBP fusion) (natural protein)
chain: MESLVLGVNEKTHVQLSLPVLQVRDVLVRGFGDSVEEALSEAREHLKNGTCGLVELEKGVLPQLEQPYVFIKRSDALSTNHGHKVVELVAEMDGIQYGRSGITLGVLVPHVGETPIAYRNVLLRKNGNKGAGGHSYGIDLKSYDLGDELGTDPIEDYEQNWNTKHGSGALRELTRELNGG
B3: SARS-CoV nsp1 middle domain (13-127), His6-MBP fusion (domain or fragment)
chain: B1 chain
B4: SARS-CoV-2 nsp1 middle domain (13-127), His6-MBP fusion (domain or fragment)
chain: HVQLSLPVLQVRDVLVRGFGDSVEEVLSEARQHLKDGTCGLVEVEKGVLPQLEQPYVFIKRSDARTAPHGHVMVELVAELEGIQYGRSGETLGVLVPHVGEIPVAYRKVLLRKNG

Columns and labels:
Conditions in all cases: both partners purified
[1] = biological target: T2, Truncated human primosome (Pol α: 334-1462; B subunit: 149-598; PriS: 1-420; PriL: 1-509) (human, UniProt P09884 334-1462; Q14181 149-598; P49642 1-420; P49643 1-509); test: […]) in 25 mM HEPES pH 7.2, 150 mM KCl, 1 mM DTT; […]
T2 construct: also called truncated primosome; Pol α - primase

[2] = biological target: T1, Pol α catalytic subunit (334-1462), as …; test: as above
[3] = biological target: T2, Truncated human primosome (Pol α: …); test: pull-down
[4] = biological target: T3, Full-length human primosome (Pol α: 1-1462; B subunit: 1-598; PriS: 1-420; PriL: 1-509) (human, UniProt P09884 1-1462; Q14181 1-598; P49642 1-420; P49643 1-509); test: pull-down
T3 construct: also called DNA polymerase α - primase complex; Pol α - primase
T3 sequence (Q14181 whole entry, chain 2 of 3): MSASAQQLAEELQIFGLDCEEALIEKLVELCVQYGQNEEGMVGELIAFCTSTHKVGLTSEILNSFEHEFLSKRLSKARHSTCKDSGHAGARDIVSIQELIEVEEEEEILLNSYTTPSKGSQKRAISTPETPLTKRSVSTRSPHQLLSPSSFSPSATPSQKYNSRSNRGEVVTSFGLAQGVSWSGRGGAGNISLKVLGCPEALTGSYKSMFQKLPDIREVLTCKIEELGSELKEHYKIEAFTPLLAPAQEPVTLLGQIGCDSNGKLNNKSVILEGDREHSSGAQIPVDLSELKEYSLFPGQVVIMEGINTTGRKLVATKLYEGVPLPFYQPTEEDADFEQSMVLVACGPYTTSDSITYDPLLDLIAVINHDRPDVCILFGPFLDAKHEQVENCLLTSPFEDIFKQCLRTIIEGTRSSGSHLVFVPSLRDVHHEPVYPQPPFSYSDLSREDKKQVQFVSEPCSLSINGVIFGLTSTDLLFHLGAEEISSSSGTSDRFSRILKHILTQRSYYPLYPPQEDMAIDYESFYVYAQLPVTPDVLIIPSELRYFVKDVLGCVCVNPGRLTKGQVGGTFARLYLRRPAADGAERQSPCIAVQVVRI
T3 sequence (P49642 whole entry, chain 3 of 3): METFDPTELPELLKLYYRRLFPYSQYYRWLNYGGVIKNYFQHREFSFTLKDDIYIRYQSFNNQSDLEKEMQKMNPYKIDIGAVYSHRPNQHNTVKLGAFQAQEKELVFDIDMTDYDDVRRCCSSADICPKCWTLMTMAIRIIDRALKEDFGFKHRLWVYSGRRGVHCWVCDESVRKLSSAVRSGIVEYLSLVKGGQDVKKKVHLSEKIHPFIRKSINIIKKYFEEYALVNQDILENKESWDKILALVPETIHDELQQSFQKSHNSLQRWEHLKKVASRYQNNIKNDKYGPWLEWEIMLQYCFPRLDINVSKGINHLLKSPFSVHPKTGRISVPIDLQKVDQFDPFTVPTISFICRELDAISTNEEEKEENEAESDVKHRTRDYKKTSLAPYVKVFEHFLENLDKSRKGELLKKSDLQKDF
T3 sequence (P49643 whole entry, chain 4 of 3): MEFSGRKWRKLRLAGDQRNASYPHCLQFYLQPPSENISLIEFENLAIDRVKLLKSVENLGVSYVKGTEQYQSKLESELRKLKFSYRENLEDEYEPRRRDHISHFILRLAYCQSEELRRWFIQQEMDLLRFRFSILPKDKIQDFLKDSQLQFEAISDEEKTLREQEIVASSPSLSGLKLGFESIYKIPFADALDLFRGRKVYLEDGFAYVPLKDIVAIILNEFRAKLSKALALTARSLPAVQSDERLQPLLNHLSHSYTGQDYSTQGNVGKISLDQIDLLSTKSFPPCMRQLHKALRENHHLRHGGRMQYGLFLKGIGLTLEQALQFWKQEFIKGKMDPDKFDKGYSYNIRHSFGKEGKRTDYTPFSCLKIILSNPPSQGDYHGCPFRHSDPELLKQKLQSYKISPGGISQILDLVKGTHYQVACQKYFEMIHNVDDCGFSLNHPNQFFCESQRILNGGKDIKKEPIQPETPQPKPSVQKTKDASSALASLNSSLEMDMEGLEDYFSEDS

T2 sequence (Q14181 149-598, chain 2 of 3): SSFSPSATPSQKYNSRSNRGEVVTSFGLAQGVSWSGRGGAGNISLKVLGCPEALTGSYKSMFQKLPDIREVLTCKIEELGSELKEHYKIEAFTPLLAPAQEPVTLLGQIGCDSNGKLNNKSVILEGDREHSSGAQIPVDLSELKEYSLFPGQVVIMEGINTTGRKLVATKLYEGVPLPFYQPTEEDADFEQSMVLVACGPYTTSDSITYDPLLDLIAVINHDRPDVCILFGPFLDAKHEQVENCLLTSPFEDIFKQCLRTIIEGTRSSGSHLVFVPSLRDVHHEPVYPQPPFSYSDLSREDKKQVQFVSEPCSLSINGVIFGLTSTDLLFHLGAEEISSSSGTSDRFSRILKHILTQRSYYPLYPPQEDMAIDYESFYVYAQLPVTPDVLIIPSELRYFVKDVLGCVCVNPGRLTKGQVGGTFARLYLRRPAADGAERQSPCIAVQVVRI
T2 sequence (P49642 whole entry, chain 3 of 3, the tested form may be a part): as the sequence (P49642 whole entry, chain 3 of 3) above
T2 sequence (P49643 whole entry, chain 4 of 3, the tested form may be a part): as the sequence (P49643 whole entry, chain 4 of 3) above

Binder | binding result [1] | binding result [2] | binding result [3] | binding result [4]
B1 | binds | binds | – | –
B2 | – | – | binds | binds
B3 | – | – | binds | –
B4 | – | – | binds | –
